Measurements reported in publication PMC12170172, “Initiation of ERAD by the bifunctional complex of Mnl1/Htm1 mannosidase and protein disulfide isomerase” (Nature Structural & Molecular Biology, 2025).

Biological target: T1, Mnl1–FLAG (S. cerevisiae, UniProt P38888 21-796)
T1 construct: Mnl1 (Htm1), luminal ER mannosidase of S. cerevisiae; MHD amino acids 29–514, loop 515–650, CTD 651–796; called 'Full-length' against Mnl1ΔC; The end of the FLAG tag is stated for the GAL1 plasmid; also called Htm1; FLAG-tagged Mnl1; not shown: FLAG, C-terminal, kept
T1 sequence (looked up): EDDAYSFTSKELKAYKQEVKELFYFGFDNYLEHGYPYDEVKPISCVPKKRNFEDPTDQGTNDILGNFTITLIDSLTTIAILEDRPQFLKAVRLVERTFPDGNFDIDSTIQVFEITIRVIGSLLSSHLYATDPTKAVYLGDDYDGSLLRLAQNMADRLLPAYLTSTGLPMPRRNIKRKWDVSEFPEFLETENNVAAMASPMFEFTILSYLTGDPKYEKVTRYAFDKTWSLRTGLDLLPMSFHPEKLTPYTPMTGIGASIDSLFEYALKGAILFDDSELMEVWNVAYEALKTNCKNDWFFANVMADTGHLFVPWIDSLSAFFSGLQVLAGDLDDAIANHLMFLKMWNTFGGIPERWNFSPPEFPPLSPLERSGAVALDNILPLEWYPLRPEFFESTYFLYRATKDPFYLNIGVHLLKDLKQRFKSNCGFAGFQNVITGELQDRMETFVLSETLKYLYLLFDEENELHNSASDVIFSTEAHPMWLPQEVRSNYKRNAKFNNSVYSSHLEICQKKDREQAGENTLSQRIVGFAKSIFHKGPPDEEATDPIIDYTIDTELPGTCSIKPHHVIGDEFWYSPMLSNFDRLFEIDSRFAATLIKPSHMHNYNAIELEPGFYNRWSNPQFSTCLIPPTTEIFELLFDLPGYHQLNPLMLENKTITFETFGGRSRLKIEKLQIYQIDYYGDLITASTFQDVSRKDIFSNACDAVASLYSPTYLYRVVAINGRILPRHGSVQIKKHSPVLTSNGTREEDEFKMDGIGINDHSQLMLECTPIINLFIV
Experiment: cryo-EM structure; Mnl1–FLAG–Pdi1 complex at 1 mg/ml, purified from detergent-treated yeast membranes with anti-FLAG beads and by size-exclusion chromatography as a 1:1 complex; 25 mM HEPES pH 7.4, 150 mM NaCl
Conditions: both partners purified

B1: Pdi1 (protein disulfide isomerase) (enzyme, S. cerevisiae, UniProt P17967 29-522, looked up)
chain: PEDSAVVKLATDSFNEYIQSHDLVLAEFFAPWCGHCKNMAPEYVKAAETLVEKNITLAQIDCTENQDLCMEHNIPGFPSLKIFKNSDVNNSIDYEGPRTAEAIVQFMIKQSQPAVAVVADLPAYLANETFVTPVIVQSGKIDADFNATFYSMANKHFNDYDFVSAENADDDFKLSIYLPSAMDEPVVYNGKKADIADADVFEKWLQVEALPYFGEIDGSVFAQYVESGLPLGYLFYNDEEELEEYKPLFTELAKKNRGLMNFVSIDARKFGRHAGNLNMKEQFPLFAIHDMTEDLKYGLPQLSEEAFDELSDKIVLESKAIESLVKDFLKGDASPIVKSQEIFENQDSSVFQLVGKNHDEIVNDPKKDVLVLYYAPWCGHCKRLAPTYQELADTYANATSDVLIAKLDHTENDVRGVVIEGYPTIVLYPGGKKSESVVYQGSRSLDSLFDFIKENGHFDVDGKALYEEAQEKAAEEADADAELADEEDAIHDEL
notes: Pdi1, protein disulfide isomerase of S. cerevisiae, untagged; Trx domains a, b, b′ and a′; amino acids 24–500 could be modelled; source: S. cerevisiae, overexpressed together with Mnl1–FLAG (GAL1 promoter), purified as a complex
B1 was tested, and the “stoichiometry N” value was 1.
